{
  "source": "paper PMC8346855",
  "key": {"[1]": {"molecular_target": "thermostabilized turkey beta-1 adrenergic receptor (turkey) (UniProt P07700)", "sequence (P07700 whole entry)": "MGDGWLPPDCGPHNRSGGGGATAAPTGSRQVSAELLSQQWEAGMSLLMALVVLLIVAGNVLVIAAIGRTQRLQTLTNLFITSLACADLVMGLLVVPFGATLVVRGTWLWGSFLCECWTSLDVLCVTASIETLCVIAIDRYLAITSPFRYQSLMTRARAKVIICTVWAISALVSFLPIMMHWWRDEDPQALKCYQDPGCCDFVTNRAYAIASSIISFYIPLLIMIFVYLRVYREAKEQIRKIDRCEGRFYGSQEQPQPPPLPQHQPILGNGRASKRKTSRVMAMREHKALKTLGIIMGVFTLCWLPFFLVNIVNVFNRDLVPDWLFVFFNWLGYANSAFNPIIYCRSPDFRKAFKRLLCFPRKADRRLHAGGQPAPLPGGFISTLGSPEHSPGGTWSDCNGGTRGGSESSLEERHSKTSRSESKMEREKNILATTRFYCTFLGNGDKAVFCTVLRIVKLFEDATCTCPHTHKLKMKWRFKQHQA", "assay": "cross-linking; apo β1AR with Gαi or β-arrestin-1 at equimolar concentration; BS(PEG)9, high-mass MALDI-MS; percent complex by normalisation with β-Gal"}, "[2]": {"molecular_target": "thermostabilized turkey beta-1 adrenergic receptor (turkey) (UniProt P07700)", "assay": "cross-linking; carvedilol-bound β1AR with Gαi or β-arrestin-1 at equimolar concentration; BS(PEG)9, high-mass MALDI-MS; percent complex by normalisation with β-Gal"}, "[3]": {"molecular_target": "thermostabilized turkey beta-1 adrenergic receptor (turkey) (UniProt P07700)", "assay": "cross-linking; isoprenaline-bound β1AR with Gαi or β-arrestin-1 at equimolar concentration; BS(PEG)9, high-mass MALDI-MS; percent complex by normalisation with β-Gal"}, "[4]": {"molecular_target": "thermostabilized turkey beta-1 adrenergic receptor (turkey) (UniProt P07700)", "assay": "cross-linking; Kd by titrating the G protein against the apo GPCR; 20 mM Hepes pH 7.5, 40 mM NaCl, 0.01% lauryl maltose neopentyl glycol; BS(PEG)9, high-mass MALDI-MS, normalised to β-galactosidase"}, "[5]": {"molecular_target": "thermostabilized turkey beta-1 adrenergic receptor (turkey) (UniProt P07700)", "assay": "cross-linking; Kd by titrating the partner protein against isoprenaline-bound β1AR; 20 mM Hepes pH 7.5, 40 mM NaCl, 0.01% lauryl maltose neopentyl glycol; BS(PEG)9, high-mass MALDI-MS, normalised to β-galactosidase"}, "[6]": {"molecular_target": "mouse angiotensin II type 1 receptor F117W Δ324 with a C-terminal 1D4 tag (mouse)", "assay": "cross-linking + other: high-mass MALDI-MS; ligand-free (apo) GPCR, 5 µM, mixed with partner protein at various concentrations, 1 h at room temperature, BS(PEG)9 cross-linking, β-Gal as internal standard; 20 mM Hepes pH 7.5, 40 mM NaCl, 0.01% LMNG; Ka = 1/Kd"}, "[7]": {"molecular_target": "angiotensin II-bound mouse angiotensin II type 1 receptor F117W Δ324 (mouse | human)", "assay": "cross-linking + other: high-mass MALDI-MS; angiotensin II-bound AT1R (angII-AT1R), 5 µM, mixed with partner protein at various concentrations, 1 h at room temperature, BS(PEG)9 cross-linking, 1.0 µM β-Gal as internal standard; 20 mM Hepes pH 7.5, 40 mM NaCl, 0.01% LMNG; Ka = 1/Kd"}, "[8]": {"molecular_target": "angiotensin II-bound F117W mutant of mouse angiotensin II type 1 receptor (mouse | not stated) (UniProt P29754)", "assay": "cross-linking; Kd by titrating the G protein against ligand-bound AT1R; 20 mM Hepes pH 7.5, 40 mM NaCl, 0.01% lauryl maltose neopentyl glycol; BS(PEG)9, high-mass MALDI-MS, normalised to β-galactosidase"}, "[9]": {"molecular_target": "thermostabilized turkey beta-1 adrenergic receptor (turkey) (UniProt P07700)", "assay": "cross-linking; β1AR and partner with 1 or 25 µM s32212 at increasing concentrations of isoprenaline; BS(PEG)9, high-mass MALDI-MS"}},
  "data": [
    {"substance": "full-length wild-type Gαi (from UniProt P63096 1-354) (natural protein)", "values": [
      {"measurement": "complex formation", "setting": "[1]", "result": 60, "unit": "%"},
      {"measurement": "complex formation", "setting": "[2]", "result": 92, "unit": "%"},
      {"measurement": "complex formation", "setting": "[3]", "result": 60, "unit": "%"}
    ]},
    {"substance": "full-length wild-type β-arrestin-1 (from UniProt P49407 1-418) (natural protein)", "values": [
      {"measurement": "complex formation", "setting": "[1]", "result": 32, "unit": "%"},
      {"measurement": "complex formation", "setting": "[2]", "result": 88, "unit": "%"},
      {"measurement": "complex formation", "setting": "[3]", "result": 32, "unit": "%"}
    ]},
    {"substance": "mGo truncated by its last five residues (domain or fragment)", "values": [
      {"measurement": "Kd", "setting": "[4]", "result": 0.28, "unit": "µM"},
      {"measurement": "Kd", "setting": "[5]", "result": 0.23, "unit": "µM"}
    ]},
    {"substance": "mini-Go (domain or fragment)", "values": [
      {"measurement": "Ka", "setting": "[6]", "result": 270000, "unit": "M⁻¹"},
      {"measurement": "Ka", "setting": "[7]", "result": "1.02e+06", "unit": "M⁻¹"}
    ]},
    {"substance": "mini-Gα protein mGi (domain or fragment)", "values": [
      {"measurement": "Kd", "setting": "[5]", "result": 1.62, "unit": "µM"}
    ]},
    {"substance": "mini-Gα protein mGo (domain or fragment)", "values": [
      {"measurement": "Kd", "setting": "[4]", "result": 0.25, "unit": "µM"},
      {"measurement": "binding strength relative to mGq", "setting": "[8]", "result": 2, "unit": "fold"},
      {"measurement": "Kd", "setting": "[5]", "result": 0.25, "unit": "µM"}
    ]},
    {"substance": "mini-Gα protein mGq (domain or fragment)", "values": [
      {"measurement": "Kd", "setting": "[5]", "result": 1.24, "unit": "µM"}
    ]},
    {"substance": "mini-Gα protein mGs (from UniProt P63092 87-394) (domain or fragment)", "values": [
      {"measurement": "complex formation recovered by raising isoprenaline (with s32212)", "setting": "[9]", "result": 80, "unit": "%"},
      {"measurement": "Kd", "setting": "[5]", "result": 0.35, "unit": "µM"}
    ]}
  ]
}
